B1: scFv-19 (scFv)
scFv: QVQLVQSGGGLVQPGGSLRLSCAASGFTFSSYAMHWVRQAPGKGLEWVSVISPPGHNTYYADSVKGRFTISRDNSKNTLYLQMNSLRAEDTAVYYCARASVGATGPFDIWGQGTLVTVSSASTGGGGSGGGGSGGGGSGGGGSSSELTQPPSVSVAPGQTVTITCQGDSLRSYYASWYQQKPGTAPKLLIYGENNRPSGVPDRFSGSSSGTSASLTITGAQAEDEADYYCNSRDSSGTHLTVFGGGTKLTVLG
B2: scFv-1 (scFv)
scFv: QVQLVQSGGGLVQPGGSLRLSCAASGFTFSSYAMHWVRQAPGKGLEWVSVISPAGNNTYYADSVKGRFTISRDNSKNTLYLQMNSLRAEDTAVYYCARASVGATGPFDIWGQGTLVTVSSASTGGGGSGGGGSGGGGSGGGGSSSELTQPPSVSVAPGQTVTITCQGDSLRSYYASWYQQKPGTAPKLLIYGENNRPSGVPDRFSGSSSGTSASLTITGAQAEDEADYYCNSRDSSGTHLTVFGGGTKLTVLG
B3: scFv-2 (scFv)
scFv: QVQLVQSGGGLVQPGGSLRLSCAASGFTFSSYAMHWVRQAPGKGLEWVSVISPAGRNKYYADSVKGRFTISRDNSKNTLYLQMNSLRAEDTAVYYCARASVGATGPFDIWGQGTLVTVSSASTGGGGSGGGGSGGGGSGGGGSSSELTQPPSVSVAPGQTVTITCQGDSLRSYYASWYQQKPGTAPKLLIYGENNRPSGVPDRFSGSSSGTSASLTITGAQAEDEADYYCNSRDSSGTHLTVFGGGTKLTVLG
B4: scFv-4 (scFv)
scFv: QVQLVQSGGGLVQPGGSLRLSCAASGFTFSSYAMHWVRQAPGKGLEWVTVISPHGRNKYYADSVKGRFTISRDNSKNTLYLQMNSLRAEDTAVYYCARASVGATGPFDIWGQGTLVTVSSASTGGGGSGGGGSGGGGSGGGGSSSELTQPPSVSVAPGQTVTITCQGDSLRSYYASWYQQKPGTAPKLLIYGENNRPSGVPDRFSGSSSGTSASLTITGAQAEDEADYYCNSRDSSGTHLTVFGGGTKLTVLG
B5: scFv-5 (scFv)
scFv: QVQLVQSGGGLVQPGGSLRLSCAASGFTFSSYAMHWVRQAPGKGLEWVSVISRRGDNKYYADSVKGRFTISRDNSKNTLYLQMNSLRAEDTAVYYCARASVGATGPFDIWGQGTLVTVSSASTGGGGSGGGGSGGGGSGGGGSSSELTQPPSVSVAPGQTVTITCQGDSLRSYYASWYQQKPGTAPKLLIYGENNRPSGVPDRFSGSSSGTSASLTITGAQAEDEADYYCNSRDSSGTHLTVFGGGTKLTVLG
B6: scFv-6 (scFv)
scFv: QVQLVQSGGGLVQPGGSLRLSCAASGFTFSSYAMHWVRQAPGKGLEWVSVISNNGHNKYYADSVKGRFTISRDNSKNTLYLQMNSLRAEDTAVYYCARASVGATGPFDIWGQGTLVTVSSASTGGGGSGGGGSGGGGSGGGGSSSELTQPPSVSVAPGQTVTITCQGDSLRSYYASWYQQKPGTAPKLLIYGENNRPSGVPDRFSGSSSGTSASLTITGAQAEDEADYYCNSRDSSGTHLTVFGGGTKLTVLG
B7: scFv-7 (scFv)
scFv: QVQLVQSGGGLVQPGGSLRLSCAASGFTFSSYAMHWVRQAPGKGLEWVSVISPAGPNTYYADSVKGRFTISRDNSKNTLYLQMNSLRAEDTAVYYCARASVGATGPFDIWGQGTLVTVSSASTGGGGSGGGGSGGGGSGGGGSSSELTQPPSVSVAPGQTVTITCQGDSLRSYYASWYQQKPGTAPKLLIYGENNRPSGVPDRFSGSSSGTSASLTITGAQAEDEADYYCNSRDSSGTHLTVFGGGTKLTVLG
B8: scFv-8 (scFv)
scFv: QVQLVQSGGGLVQPGGSLRLSCAASGFTFSSYAMHWVRQAPGKGLEWVTVISPSGHNTYYADSVKGRFTISRDNSKNTLYLQMNSLRAEDTAVYYCARASVGATGPFDIWGQGTLVTVSSASTGGGGSGGGGSGGGGSGGGGSSSELTQPPSVSVAPGQTVTITCQGDSLRSYYASWYQQKPGTAPKLLIYGENNRPSGVPDRFSGSSSGTSASLTITGAQAEDEADYYCNSRDSSGTHLTVFGGGTKLTVLG
B9: scFv-9 (scFv)
scFv: QVQLVQSGGGLVQPGGSLRLSCAASGFTFSSYAMHWVRQAPGKGLEWVTVISPNGHNTYYADSVKGRFTISRDNSKNTLYLQMNSLRAEDTAVYYCARASVGATGPFDIWGQGTLVTVSSASTGGGGSGGGGSGGGGSGGGGSSSELTQPPSVSVAPGQTVTITCQGDSLRSYYASWYQQKPGTAPKLLIYGENNRPSGVPDRFSGSSSGTSASLTITGAQAEDEADYYCNSRDSSGTHLTVFGGGTKLTVLG
B10: scFv-10 (scFv)
scFv: QVQLVQSGGGLVQPGGSLRLSCAASGFTFSSYAMHWVRQAPGKGLEWVSAISPPGHNTYYADSVKGRFTISRDNSKNTLYLQMNSLRAEDTAVYYCARASVGATGPFDIWGQGTLVTVSSASTGGGGSGGGGSGGGGSGGGGSSSELTQPPSVSVAPGQTVTITCQGDSLRSYYASWYQQKPGTAPKLLIYGENNRPSGVPDRFSGSSSGTSASLTITGAQAEDEADYYCNSRDSSGTHLTVFGGGTKLTVLG
B11: scFv-11 (scFv)
scFv: QVQLVQSGGGLVQPGGSLRLSCAASGFTFSSYAMHWVRQAPGKGLEWVAVISHHGSNTYYADSVKGRFTISRDNSKNTLYLQMNSLRAEDTAVYYCARASVGATGPFDIWGQGTLVTVSSASTGGGGSGGGGSGGGGSGGGGSSSELTQPPSVSVAPGQTVTITCQGDSLRSYYASWYQQKPGTAPKLLIYGENNRPSGVPDRFSGSSSGTSASLTITGAQAEDEADYYCNSRDSSGTHLTVFGGGTKLTVLG
B12: scFv-13 (scFv)
scFv: QVQLVQSGGGLVQPGGSLRLSCAASGFTFSSYAMHWVRQAPGKGLEWVTVISPTGANTYYADSVKGRFTISRDNSKNTLYLQMNSLRAEDTAVYYCARASVGATGPFDIWGQGTLVTVSSASTGGGGSGGGGSGGGGSGGGGSSSELTQPPSVSVAPGQTVTITCQGDSLRSYYASWYQQKPGTAPKLLIYGENNRPSGVPDRFSGSSSGTSASLTITGAQAEDEADYYCNSRDSSGTHLTVFGGGTKLTVLG
B13: scFv-14 (scFv)
scFv: QVQLVQSGGGLVQPGGSLRLSCAASGFTFSSYAMHWVRQAPGKGLEWVTVISPAGPNKYYADSVKGRFTISRDNSKNTLYLQMNSLRAEDTAVYYCARASVGATGPFDIWGQGTLVTVSSASTGGGGSGGGGSGGGGSGGGGSSSELTQPPSVSVAPGQTVTITCQGDSLRSYYASWYQQKPGTAPKLLIYGENNRPSGVPDRFSGSSSGTSASLTITGAQAEDEADYYCNSRDSSGTHLTVFGGGTKLTVLG
B14: scFv-15 (scFv)
scFv: QVQLVQSGGGLVQPGGSLRLSCAASGFTFSSYAMHWVRQAPGKGLEWVSVISPHGSNKYYADSVKGRFTISRDNSKNTLYLQMNSLRAEDTAVYYCARASVGATGPFDIWGQGTLVTVSSASTGGGGSGGGGSGGGGSGGGGSSSELTQPPSVSVAPGQTVTITCQGDSLRSYYASWYQQKPGTAPKLLIYGENNRPSGVPDRFSGSSSGTSASLTITGAQAEDEADYYCNSRDSSGTHLTVFGGGTKLTVLG
B15: scFv-16 (scFv)
scFv: QVQLVQSGGGLVQPGGSLRLSCAASGFTFSSYAMHWVRQAPGKGLEWVSVISNNGHNTYYADSVKGRFTISRDNSKNTLYLQMNSLRAEDTAVYYCARASVGATGPFDIWGQGTLVTVSSASTGGGGSGGGGSGGGGSGGGGSSSELTQPPSVSVAPGQTVTITCQGDSLRSYYASWYQQKPGTAPKLLIYGENNRPSGVPDRFSGSSSGTSASLTITGAQAEDEADYYCNSRDSSGTHLTVFGGGTKLTVLG
B16: scFv-17 (scFv)
scFv: QVQLVQSGGGLVQPGGSLRLSCAASGFTFSSYAMHWVRQAPGKGLEWVTVISPPGSNKYYADSVKGRFTISRDNSKNTLYLQMNSLRAEDTAVYYCARASVGATGPFDIWGQGTLVTVSSASTGGGGSGGGGSGGGGSGGGGSSSELTQPPSVSVAPGQTVTITCQGDSLRSYYASWYQQKPGTAPKLLIYGENNRPSGVPDRFSGSSSGTSASLTITGAQAEDEADYYCNSRDSSGTHLTVFGGGTKLTVLG
B17: scFv-18 (scFv)
scFv: QVQLVQSGGGLVQPGGSLRLSCAASGFTFSSYAMHWVRQAPGKGLEWVSVISPAGTNTYYADSVKGRFTISRDNSKNTLYLQMNSLRAEDTAVYYCARASVGATGPFDIWGQGTLVTVSSASTGGGGSGGGGSGGGGSGGGGSSSELTQPPSVSVAPGQTVTITCQGDSLRSYYASWYQQKPGTAPKLLIYGENNRPSGVPDRFSGSSSGTSASLTITGAQAEDEADYYCNSRDSSGTHLTVFGGGTKLTVLG

target: T1, human EphA2 on OVCAR-3 and U-251 cells (human, UniProt P29317 24-976); assay: CLIA: scFv-decorated fluorescent NTA(Ni) liposomes on EphA2-expressing cells, FACS
T1 construct: whole, on cells; also called EphA2 receptors
Experimental: To test the anti-EphA2 activity of these variant scFvs, the binding and internalization of liposomes externally decorated with these Abs was assayed on cell lines expressing EphA2. A rapid high-throughput Chelated Ligand-induced Internalization Assay (CLIA) (Nielsen et al., BMC immunology, 2006, 7:24) was used to screen anti-EphA2-scFv-targeted liposomes for binding and internalization assessment. Two cell lines that express high levels of EphA2 receptors, OVCAR-3 and U-251, were tested, as well as a murine EphA2-expressing mouse cell line, CT-26 (to test whether cross-reactivity to murine EphA2 was retained by the engineered scFvs). Via nickel-binding by each scFv's c-terminal His6 tag, the scFvs were bound to fluorescently labeled liposomes comprising an NTA(Ni) conjugated lipid (Dil5-NTA liposomes).
Dil5-NTA liposomes were prepared as follows. The NTA conjugated lipid, DOD-Tri-NTA, was synthesized as described in Huang et al., Bioconjugate chemistry, 2006, vol. 17, p. 1592-1600. Hydrogenated soy phosphatidylcholine (HSPC), cholesterol, methoxy-PEG(2000)-distearoylphosphatidylethanolamine (PEG-DSPE), DOD-tri-NTA, and a fluorescent lipid dye, Dil5, (ThermoFisher® Invitrogen® Molecular Probes™, cat. # D12370) were combined in a chloroform solution at the molar ratio of 100:66.7:5:0.5:0.3 respectively and the solution evaporated under vacuum to dryness forming a lipid film. The film was hydrated in HEPES-buffered physiological saline (“HBS-6.5”—5 mM HEPES, 144 mM NaCl pH 6.5) at 68° C., the resulting lipid suspension was subjected to several cycles of freezing (dry ice-acetone) and thawing (68C), and extruded through two stacked polycarbonate membranes (Whatman Nuclepore, USA) with the pore size of 200 nm (6 times) and 100 nm (10 times) using Lipex™ thermobarrel extruder (Northern Lipids, Canada). This protocol typically produces unilamellar vesicles with the z-average size of 100-110 nm and polydispersity index less than 0.1. The extruded liposomes were chilled to room temperature, purified by gel-chromatography on a Sephadex® G-75 (GE Healthcare) column eluted with HBS-6.5, and then sterilized by passage through a 0.2-μm filter. The concentration of liposomal phospholipid was then determined after acid digestion using spectrophotometric phosphomolybdate method.

T1 sequence (P29317 24-976): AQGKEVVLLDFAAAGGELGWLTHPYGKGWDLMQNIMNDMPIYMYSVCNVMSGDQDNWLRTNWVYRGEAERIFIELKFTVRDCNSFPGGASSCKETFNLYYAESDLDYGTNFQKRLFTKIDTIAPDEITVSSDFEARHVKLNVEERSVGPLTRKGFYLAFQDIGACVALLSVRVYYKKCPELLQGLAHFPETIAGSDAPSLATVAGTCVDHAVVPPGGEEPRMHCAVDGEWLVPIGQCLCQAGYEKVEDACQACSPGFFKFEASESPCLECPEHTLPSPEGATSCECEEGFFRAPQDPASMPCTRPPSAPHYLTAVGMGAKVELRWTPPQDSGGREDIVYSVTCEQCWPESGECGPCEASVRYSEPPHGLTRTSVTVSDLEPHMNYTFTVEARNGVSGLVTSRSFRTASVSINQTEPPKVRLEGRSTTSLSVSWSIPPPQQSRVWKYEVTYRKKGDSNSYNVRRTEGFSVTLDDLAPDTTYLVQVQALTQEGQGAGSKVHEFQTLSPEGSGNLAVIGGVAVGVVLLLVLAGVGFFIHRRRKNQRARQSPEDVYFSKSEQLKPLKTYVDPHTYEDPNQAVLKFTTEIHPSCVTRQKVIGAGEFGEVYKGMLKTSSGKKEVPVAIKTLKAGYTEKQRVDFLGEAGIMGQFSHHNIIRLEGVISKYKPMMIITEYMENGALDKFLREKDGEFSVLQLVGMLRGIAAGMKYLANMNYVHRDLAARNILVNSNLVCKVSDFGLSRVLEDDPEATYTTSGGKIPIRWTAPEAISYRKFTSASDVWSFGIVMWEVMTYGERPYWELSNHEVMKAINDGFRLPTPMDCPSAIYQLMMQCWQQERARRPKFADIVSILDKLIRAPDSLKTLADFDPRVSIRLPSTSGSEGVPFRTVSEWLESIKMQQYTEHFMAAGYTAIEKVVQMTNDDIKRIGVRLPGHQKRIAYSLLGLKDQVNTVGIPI

Binding result, binds:
B1
B2
B3
B4
B5
B6
B7
B8
B9
B10
B11
B12
B13
B14
B15
B16
B17

From patent US20170267768A1 (University of California, published 2017)
